What was measured:
[1] = target: T1, cynomolgus monkey CD19, membrane-bound, stably expressed on CHO cells (cynomolgus monkey, UniProt A0A2K5W8L9 20-557); assay: MSD-SET solution equilibrium titration at 37° C., fixed CHO cells expressing cynomolgus monkey CD19; geometric mean of 3 replicates
T1 construct: whole, on cells; The cells were fixed with paraformaldehyde for MSD-SET; also called cynomolgus monkey CD19 expressing CHO cells
T1 sequence: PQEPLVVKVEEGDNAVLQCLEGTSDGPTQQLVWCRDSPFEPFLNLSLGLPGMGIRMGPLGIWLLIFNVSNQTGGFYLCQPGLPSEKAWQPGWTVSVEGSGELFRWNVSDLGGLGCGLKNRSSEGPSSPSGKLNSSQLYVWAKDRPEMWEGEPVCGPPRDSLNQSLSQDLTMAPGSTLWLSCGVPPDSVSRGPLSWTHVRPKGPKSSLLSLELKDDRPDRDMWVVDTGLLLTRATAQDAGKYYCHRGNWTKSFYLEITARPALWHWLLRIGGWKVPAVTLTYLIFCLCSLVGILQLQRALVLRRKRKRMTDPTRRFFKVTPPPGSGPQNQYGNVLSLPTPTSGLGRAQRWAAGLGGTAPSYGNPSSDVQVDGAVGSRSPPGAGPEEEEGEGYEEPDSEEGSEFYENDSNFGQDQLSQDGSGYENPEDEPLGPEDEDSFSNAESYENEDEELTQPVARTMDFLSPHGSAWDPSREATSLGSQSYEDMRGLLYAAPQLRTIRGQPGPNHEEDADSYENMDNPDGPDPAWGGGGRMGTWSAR
Experimental: (§1) Following incubation, cells are pelleted by centrifugation. One hundred microliters of the clarified supernatant from the plate is transferred to the prepared MSD plate and incubated on a plate shaker at room temperature for 60 minutes. Following incubation, the plate is washed 3× with TBST, then 100 μL of 1 μg/mL biotinylated goat anti-human IgG primary antibody (Southern Biotech, Catalog 2010-08) in 1% Blocker A is added to all wells. This is incubated on a plate shaker at room temperature for 60 minutes. The plate was washed 3× with TBST, then 100 μL of 1 μg/mL SULFO-TAG streptavidin (Meso Scale Discovery, P/N R32AD-1) in 1% Blocker A was added to all wells. This was incubated on a plate shaker at room temperature for 60 minutes. The plate is washed 3× with TBST, then 1× Read Buffer T (Meso Scale Discovery, P/NR92TC-1) is added immediately before reading the plate. Dissociation constant (KD) and a least common multiplier (LCM) to account for unknown antigen concentrations on cells are globally fit from the MSD-SET data to an equilibrium binding equation (see Darling and Brault, 2005, Kinetic Exclusion Assay Technology: Characterization of Molecular Interactions. Assay and Drug Development Technologies 2: 647-657) using non-linear regression in GraphPad Prism.

[2] = target: T2, human CD19, membrane-bound, on cells (human, UniProt P15391 20-556); assay: cell-based or functional assay
T2 sequence: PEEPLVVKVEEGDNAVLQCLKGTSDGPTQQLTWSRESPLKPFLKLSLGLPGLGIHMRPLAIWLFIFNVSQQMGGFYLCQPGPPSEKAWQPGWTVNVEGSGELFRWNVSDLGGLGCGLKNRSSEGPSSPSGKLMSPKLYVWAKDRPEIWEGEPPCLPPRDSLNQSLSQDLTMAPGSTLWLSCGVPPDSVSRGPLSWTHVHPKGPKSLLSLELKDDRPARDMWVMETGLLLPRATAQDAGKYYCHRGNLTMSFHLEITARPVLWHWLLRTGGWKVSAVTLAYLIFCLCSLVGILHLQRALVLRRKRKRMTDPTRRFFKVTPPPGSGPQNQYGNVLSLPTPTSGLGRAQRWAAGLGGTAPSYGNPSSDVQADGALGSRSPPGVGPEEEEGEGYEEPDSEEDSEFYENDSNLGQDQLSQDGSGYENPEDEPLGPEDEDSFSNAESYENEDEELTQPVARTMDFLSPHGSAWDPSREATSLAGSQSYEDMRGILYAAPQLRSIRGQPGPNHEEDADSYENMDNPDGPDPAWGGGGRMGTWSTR

[3] = target: T2, human CD19, membrane-bound, on cells; assay: MSD-SET solution equilibrium titration at 37° C., fixed CHO cells expressing human CD19; geometric mean of 3 replicates
Experimental: as §1

[4] = target: T2, human CD19, membrane-bound, on cells; assay: cell-based or functional assay; remark: listed apart in the source
[5] = target: T3, human CD19 extracellular domain protein (human, UniProt P15391 20-291, biotinylated in the FIG. 2 ELISA and in the Fab screening (sites not given)); assay: sandwich ELISA: antibody captured on goat anti-human kappa, biotinylated human CD19 ECD titrated (20 ug/mL to 9 ng/mL), about 16 h wash at 37 C, neutravidin-alkaline phosphatase, absorbance at 560 nm
T3 construct: also called CD19 extracellular domain (ECD) protein; biotinylated human CD19 ECD antigen
T3 sequence: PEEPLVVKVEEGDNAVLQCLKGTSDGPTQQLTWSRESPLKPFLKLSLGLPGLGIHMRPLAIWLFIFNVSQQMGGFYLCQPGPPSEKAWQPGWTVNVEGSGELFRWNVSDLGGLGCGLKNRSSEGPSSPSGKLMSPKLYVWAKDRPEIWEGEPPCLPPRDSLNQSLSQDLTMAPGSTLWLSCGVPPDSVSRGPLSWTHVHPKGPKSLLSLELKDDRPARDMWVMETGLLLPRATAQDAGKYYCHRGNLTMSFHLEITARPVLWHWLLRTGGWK
Experimental: The ELISA assay is performed as follows. A 96 well microtiter plate is coated overnight at 4° C. using 50 μL/well of goat anti-human kappa polyclonal antibody diluted to 5 μg/mL in phosphate buffered saline (PBS). Following overnight incubation, the plate is aspirated and blocked using 200 μL of casein buffer for 1 hour at room temperature. The plate is washed three times using PBST (PBS with 0.1% Tween). The anti-human CD19 antibodies are diluted to 5 μg/mL in PBS casein and 50 μL added to each column of the anti-human kappa coated casein blocked plate for 1 hour at 37° C. The plate is washed three times using PBST. Biotinylated human CD19 extracellular domain protein is serially diluted from 20 μg/mL to 9 ng/mL and 50 μL added to the plates and incubated for 1 hour at 37° C. The plate is washed three times using PBST and then transferred to a beaker containing 1 liter of PBST and incubated with stirring overnight (approx. 16 hr) at 37° C. The wash buffer is aspirated and 50 μL of neutravidin alkaline phosphatase-conjugate diluted 1:1000 in casein buffer is added and incubated for 1 hour at 37° C. The plate is washed three times using PBS 0.1% Tween. Fifty μL of AMP-PMP substrate diluted 1:35 in deionized water is added and the absorbance at 560 nm read on a Spectramax plate reader.

[6] = target: T4, cynomolgus monkey CD19 Fc fusion protein (cynomolgus monkey, UniProt A0A2K5W8L9 20-292); assay: SPR (Biacore T200) at 37° C., CD19-Fc captured on a protein A chip, Fab injected, 1:1 binding model
T4 construct: Bought from R&D Systems; also called recombinant CD19-Fc; not shown: Fc part of a bought fusion protein
T4 sequence: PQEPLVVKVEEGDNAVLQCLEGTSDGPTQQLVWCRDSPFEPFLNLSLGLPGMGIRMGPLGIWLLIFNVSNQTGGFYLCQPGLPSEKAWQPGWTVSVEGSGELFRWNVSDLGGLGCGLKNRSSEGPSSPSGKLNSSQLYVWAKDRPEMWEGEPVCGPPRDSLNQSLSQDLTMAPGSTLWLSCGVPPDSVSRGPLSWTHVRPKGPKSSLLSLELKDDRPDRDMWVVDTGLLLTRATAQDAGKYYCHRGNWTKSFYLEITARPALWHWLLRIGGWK
Experimental: (§2) Biacore T200 instrument (GE Healthcare Life Sciences), reagents, and Biacore T200 Evaluation Software Ver 3.1 are used for the surface plasmon resonance analysis of human, mouse and cynomolgus monkey CD19 binding to the Fab fragment of CB3f. Recombinant CD19-Fc proteins are purchased from R&D Systems. A protein A sensor chip (GE protein A chip P/N 2912755) is used. Running buffer is 1×HBS-EP+ (Teknova P/N H8022), and running temperature is 37° C.
(§3) CD19 Fc fusion proteins are diluted to 3 μg/mL in running buffer, and approximately 60 RU each of human, cynomolgus monkey, and mouse proteins are captured in flow cells (Fc) 2, 3 and 4, respectively. CB3f Fab fragment is diluted to 1000 nM in running buffer and then 5-fold serially diluted in running buffer to 1.6 nM for a total of 5 dilutions. Fab or buffer blank is injected at 50 μL/min for 300 seconds followed by a 900 second dissociation phase. Regeneration is performed by injecting 10 mM glycine pH 1.5 for 30 seconds at 50 μL/min over all Fc. Reference-subtracted data is collected as Fc2-Fc1, Fc3-Fc1 and Fc4-Fc1, and then reference-subtracted data is blank subtracted. The on-rate (kₒₙ) and off-rate (koff) are fit using the “1:1 Binding” model. The affinity (KD) is calculated from the binding kinetics according to the relationship: KD=koff/kₒₙ.

[7] = target: T5, human CD19 Fc fusion protein (human, UniProt P15391 20-291); assay: as above
T5 construct: Bought from R&D Systems; also called recombinant CD19-Fc; not shown: Fc part of a bought fusion protein
T5 sequence: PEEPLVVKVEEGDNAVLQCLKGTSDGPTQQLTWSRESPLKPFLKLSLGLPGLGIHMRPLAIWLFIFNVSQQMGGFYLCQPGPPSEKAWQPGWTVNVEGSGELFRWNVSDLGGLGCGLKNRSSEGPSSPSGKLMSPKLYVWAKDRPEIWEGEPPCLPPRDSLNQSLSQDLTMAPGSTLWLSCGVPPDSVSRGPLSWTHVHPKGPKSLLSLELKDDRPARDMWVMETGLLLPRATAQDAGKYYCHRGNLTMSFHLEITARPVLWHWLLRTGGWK
Experimental: as §2, §3

[8] = target: T4, cynomolgus monkey CD19 Fc fusion protein; assay: SPR (Biacore T200) at 37° C., CD19-Fc captured on a protein A chip, Fab injected, KD = koff/kon
Experimental: as §2, §3

[9] = target: T5, human CD19 Fc fusion protein; assay: as above
Experimental: as §2, §3

[10] = target: T6, mouse CD19 Fc fusion protein (mouse, UniProt P25918 19-287, limits assumed); assay: SPR (Biacore T200) at 37° C., CD19-Fc captured on a protein A chip, Fab injected
T6 construct: Bought from R&D Systems; also called recombinant CD19-Fc; not shown: Fc part of a bought fusion protein
T6 sequence (looked up): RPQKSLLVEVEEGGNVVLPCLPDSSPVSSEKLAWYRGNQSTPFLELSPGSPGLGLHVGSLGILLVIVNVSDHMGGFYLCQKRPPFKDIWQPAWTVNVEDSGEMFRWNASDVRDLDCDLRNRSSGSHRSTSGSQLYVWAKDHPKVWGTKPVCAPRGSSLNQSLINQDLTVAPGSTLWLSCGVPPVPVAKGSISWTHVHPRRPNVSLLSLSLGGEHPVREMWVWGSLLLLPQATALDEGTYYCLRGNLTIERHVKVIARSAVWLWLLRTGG
Experimental: as §2, §3

B1: anti-human CD19 mAb CB3f (IgG4 isotype) (antibody, V domains shown)
VH: QVQLVQSGAEVKKPGSSVKVSCKASGHTISSYAYSWVRQAPGQGLEWMGDIIPAYGSPNYAQKFQGRVTITADESTSTAYMELSSLRSEDTAVYYCAREDFGKNYAMDVWGQGTLVTVSS
VL: EIVLTQSPGTLSLSPGERATLSCRASQHVSSHYLAWYQQKPGQAPRLLIYGASSRATGIPDRFSGSGSGTDFTLTISRLEPEDFAVYYCQHYGQSQFTFGQGTKVEIKR
notes: also called anti-human CD19 mAb1
[1]
  Kd: 45.2 pM
[2]
  IC50, inhibition of B cell activation in whole blood (reduction of CD69+ B cells), Average: 8 pM
  IC50, inhibition of B cell activation in whole blood (reduction of CD69+ B cells), Donor 1: 15 pM
  IC50, inhibition of B cell activation in whole blood (reduction of CD69+ B cells), Donor 2: 0.6 pM
  IC50, inhibition of B cell activation in whole blood (reduction of CD69+ B cells), Donor 3: 8 pM
[3]
  Kd: 3.35 pM
[4]
  IC50, inhibition of primary B cell proliferation ([3H]-thymidine), Average of 12 donors: 7 pM
  IC50, inhibition of primary B cell proliferation ([3H]-thymidine), Donor 1: 6 pM
  IC50, inhibition of primary B cell proliferation ([3H]-thymidine), Donor 2: 9 pM
  IC50, inhibition of primary B cell proliferation ([3H]-thymidine), Donor 3: 3 pM
  IC50, inhibition of primary B cell proliferation ([3H]-thymidine), Donor 4: 6 pM
  IC50, inhibition of primary B cell proliferation ([3H]-thymidine), Donor 5: 4 pM
  IC50, inhibition of primary B cell proliferation ([3H]-thymidine), Donor 6: 3 pM
  IC50, inhibition of primary B cell proliferation ([3H]-thymidine), Donor 7: 3 pM
  IC50, inhibition of primary B cell proliferation ([3H]-thymidine), Donor 8: 5 pM
  IC50, inhibition of primary B cell proliferation ([3H]-thymidine), Donor 9: 5 pM
  IC50, inhibition of primary B cell proliferation ([3H]-thymidine), Donor 10: 28 pM
  IC50, inhibition of primary B cell proliferation ([3H]-thymidine), Donor 11: 4 pM
  IC50, inhibition of primary B cell proliferation ([3H]-thymidine), Donor 12: 5 pM
[5]
  EC50 (read off the curve): ~0.8 mg/L

B2: Fab fragment of CB3f (Fab, V domains shown)
VH: QVQLVQSGAEVKKPGSSVKVSCKASGHTISSYAYSWVRQAPGQGLEWMGDIIPAYGSPNYAQKFQGRVTITADESTSTAYMELSSLRSEDTAVYYCAREDFGKNYAMDVWGQGTLVTVSS
VL: EIVLTQSPGTLSLSPGERATLSCRASQHVSSHYLAWYQQKPGQAPRLLIYGASSRATGIPDRFSGSGSGTDFTLTISRLEPEDFAVYYCQHYGQSQFTFGQGTKVEIK
notes: also called CB3f Fab fragment; CB3f Fab
[6]
  koff: 0.0978 s⁻¹
  kon: 1.04e+06 M⁻¹ s⁻¹
[7]
  koff: 0.000235 s⁻¹
  kon: 3.2e+06 M⁻¹ s⁻¹
[8]
  Kd: 94500 pM
[9]
  Kd: 76.8 pM
[10]
  binding result: no binding (tested: 1 µM)
